Values of other authors as cited in PMC9694239.

Target: CNG channel beta subunit CaM1 peptide CaM1 (Homo sapiens) (UniProt Q14028)
Sequence (Q14028 whole entry, looked up, tested part not stated): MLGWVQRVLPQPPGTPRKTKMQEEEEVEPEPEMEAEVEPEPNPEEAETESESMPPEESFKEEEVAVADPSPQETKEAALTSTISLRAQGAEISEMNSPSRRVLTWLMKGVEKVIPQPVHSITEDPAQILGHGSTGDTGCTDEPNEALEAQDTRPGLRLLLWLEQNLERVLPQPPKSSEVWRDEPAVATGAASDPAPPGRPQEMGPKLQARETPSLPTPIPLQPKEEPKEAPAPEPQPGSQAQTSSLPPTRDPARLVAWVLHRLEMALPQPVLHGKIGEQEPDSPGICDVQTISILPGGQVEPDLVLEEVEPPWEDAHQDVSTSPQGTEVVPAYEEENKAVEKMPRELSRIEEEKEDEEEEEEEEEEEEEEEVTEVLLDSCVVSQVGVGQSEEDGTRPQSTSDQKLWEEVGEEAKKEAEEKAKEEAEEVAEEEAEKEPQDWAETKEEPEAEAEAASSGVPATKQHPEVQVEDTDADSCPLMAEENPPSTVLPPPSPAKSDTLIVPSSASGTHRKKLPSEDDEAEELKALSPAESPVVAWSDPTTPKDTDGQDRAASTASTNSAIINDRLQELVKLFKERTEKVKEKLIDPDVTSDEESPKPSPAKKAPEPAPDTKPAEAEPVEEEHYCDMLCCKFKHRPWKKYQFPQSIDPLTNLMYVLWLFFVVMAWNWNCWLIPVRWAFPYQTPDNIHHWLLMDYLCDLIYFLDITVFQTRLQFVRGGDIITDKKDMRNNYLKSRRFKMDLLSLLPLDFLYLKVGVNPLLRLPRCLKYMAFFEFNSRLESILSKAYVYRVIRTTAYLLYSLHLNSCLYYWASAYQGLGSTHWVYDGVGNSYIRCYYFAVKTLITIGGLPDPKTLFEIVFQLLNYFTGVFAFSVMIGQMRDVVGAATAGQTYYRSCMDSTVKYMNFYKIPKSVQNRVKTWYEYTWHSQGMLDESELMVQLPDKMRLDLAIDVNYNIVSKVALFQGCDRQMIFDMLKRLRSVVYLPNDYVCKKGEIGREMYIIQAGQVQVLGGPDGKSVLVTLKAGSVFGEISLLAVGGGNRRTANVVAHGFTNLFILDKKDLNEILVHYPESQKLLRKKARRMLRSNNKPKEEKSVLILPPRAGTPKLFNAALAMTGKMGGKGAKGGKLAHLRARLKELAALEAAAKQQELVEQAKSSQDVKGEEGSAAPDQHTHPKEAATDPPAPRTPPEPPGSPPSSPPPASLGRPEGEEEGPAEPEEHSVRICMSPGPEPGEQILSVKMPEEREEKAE

Kd: 5 µM
Substance: Calmodulin N-lobe (from UniProt P0DP23)
